Assay [1] has as its target T1, CD33 variant W22R on base-edited human CD34+ HSPCs (human, UniProt P20138 18-364).
T1 construct: also called sgRNA-E edited CD33
The assay is described as follows: flow cytometry sorting and NGS of sgRNA-E base-edited human CD34+ HSPCs. Background: In flow cytometry, cells or beads pass a laser one at a time.

Assay [2] concerns the target T2, human wild-type CD33 (human, UniProt P20138 18-364).
T2 construct: also called SIGLEC3; P67
The assay is described as follows: flow cytometry, IgG at 0.25 ug/ml on HEK293-T cells expressing CD33 against vector alone.

For assay [3], the target named is CD33 variant F44P (recombinant, biotinylated) (human, UniProt P20138 18-259, biotinylated with EZ-Link Sulfo-NHS-LC-Biotin (sites not given)). The assay is described as follows: BLI (Octet R8), avidity format: biotinylated CD33 on streptavidin sensor, Refmab #4 as analyte at 500 nM.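 Further: analyte association recorded over 300 s, followed by a 900 s dissociation phase.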
Assay [4] has as its target CD33 variant F21S (recombinant, biotinylated) (human, UniProt P20138 22-259, biotinylated with EZ-Link Sulfo-NHS-LC-Biotin (sites not given)). The description is as above.
The target in assay [5] is CD33 variant W22D (recombinant, biotinylated) (human, UniProt P20138 18-259, biotinylated with EZ-Link Sulfo-NHS-LC-Biotin (sites not given)). Described as above.
For assay [6], the target named is CD33 variant F21H (recombinant, biotinylated) (human, UniProt P20138 22-259, biotinylated with EZ-Link Sulfo-NHS-LC-Biotin (sites not given)). The description is as above.
Assay [7] addresses CD33 variant W22K (recombinant, biotinylated) (human, UniProt P20138 18-259, biotinylated with EZ-Link Sulfo-NHS-LC-Biotin (sites not given)). Described as above.
Assay [8] addresses CD33 variant N20K (recombinant, biotinylated) (human, UniProt P20138 21-259, biotinylated with EZ-Link Sulfo-NHS-LC-Biotin (sites not given)). The description is as above.
Assay [9] has as its target CD33 variant F21V (recombinant, biotinylated) (human, UniProt P20138 22-259, biotinylated with EZ-Link Sulfo-NHS-LC-Biotin (sites not given)). The assay is described as above.
Assay [10] addresses CD33 variant F21L (recombinant, biotinylated) (human, UniProt P20138 22-259, biotinylated with EZ-Link Sulfo-NHS-LC-Biotin (sites not given)). The assay is described as above.
Assay [11] deals with CD33 variant N20G (recombinant, biotinylated) (human, UniProt P20138 21-259, biotinylated with EZ-Link Sulfo-NHS-LC-Biotin (sites not given)). Described as above.
Assay [12] concerns the target CD33 variant N20E (recombinant, biotinylated) (human, UniProt P20138 21-259, biotinylated with EZ-Link Sulfo-NHS-LC-Biotin (sites not given)). Described as above.
Assay [13] deals with CD33 variant W22R (recombinant, biotinylated) (human, UniProt P20138 18-259, biotinylated with EZ-Link Sulfo-NHS-LC-Biotin (sites not given)). The assay is described as above.
Assay [14] concerns the target CD33 variant Y50K (recombinant, biotinylated) (human, UniProt P20138 18-259, biotinylated with EZ-Link Sulfo-NHS-LC-Biotin (sites not given)). The assay is described as above.
Assay [15] deals with CD33 variant Y50D (recombinant, biotinylated) (human, UniProt P20138 18-259, biotinylated with EZ-Link Sulfo-NHS-LC-Biotin (sites not given)). The assay is described as above.
In assay [16] the target is T3, CD33 wild type (recombinant, biotinylated) (human, UniProt P20138 18-259, biotinylated with EZ-Link Sulfo-NHS-LC-Biotin (sites not given)).
T3 construct: also called WT; CD33 wt
The description is as above.

In assay [17] the target is CD33 double variant Y50H_H49H (recombinant, biotinylated) (human, UniProt P20138 18-259, biotinylated with EZ-Link Sulfo-NHS-LC-Biotin (sites not given)). The assay is described as above.
For assay [18], the target named is CD33 variant F21I (recombinant, biotinylated) (human, UniProt P20138 22-259, biotinylated with EZ-Link Sulfo-NHS-LC-Biotin (sites not given)). Described as above.
The target in assay [19] is CD33 variant W22T (recombinant, biotinylated) (human, UniProt P20138 18-259, biotinylated with EZ-Link Sulfo-NHS-LC-Biotin (sites not given)). Described as above.
In assay [20] the target is CD33 variant Y50R (recombinant, biotinylated) (human, UniProt P20138 18-259, biotinylated with EZ-Link Sulfo-NHS-LC-Biotin (sites not given)). Described as above.
Assay [21] addresses CD33 variant N20H (recombinant, biotinylated) (human, UniProt P20138 21-259, biotinylated with EZ-Link Sulfo-NHS-LC-Biotin (sites not given)). The assay is described as above.
Assay [22] concerns the target CD33 variant W22E (recombinant, biotinylated) (human, UniProt P20138 18-259, biotinylated with EZ-Link Sulfo-NHS-LC-Biotin (sites not given)). The assay is described as above.
The target of assay [23] is CD33 variant F21N (recombinant, biotinylated) (human, UniProt P20138 22-259, biotinylated with EZ-Link Sulfo-NHS-LC-Biotin (sites not given)). The assay is described as above.
In assay [24] the target is CD33 variant F21Q (recombinant, biotinylated) (human, UniProt P20138 22-259, biotinylated with EZ-Link Sulfo-NHS-LC-Biotin (sites not given)). The assay is described as above.
Assay [25] addresses CD33 variant F21M (recombinant, biotinylated) (human, UniProt P20138 22-259, biotinylated with EZ-Link Sulfo-NHS-LC-Biotin (sites not given)). The description is as above.
In assay [26] the target is CD33 variant N20V (recombinant, biotinylated) (human, UniProt P20138 21-259, biotinylated with EZ-Link Sulfo-NHS-LC-Biotin (sites not given)). The assay is described as above.
Sequence of CD33 variant N20V (recombinant, biotinylated) (P20138 other isoform, or with tags, fused parts or gaps N20V N20V): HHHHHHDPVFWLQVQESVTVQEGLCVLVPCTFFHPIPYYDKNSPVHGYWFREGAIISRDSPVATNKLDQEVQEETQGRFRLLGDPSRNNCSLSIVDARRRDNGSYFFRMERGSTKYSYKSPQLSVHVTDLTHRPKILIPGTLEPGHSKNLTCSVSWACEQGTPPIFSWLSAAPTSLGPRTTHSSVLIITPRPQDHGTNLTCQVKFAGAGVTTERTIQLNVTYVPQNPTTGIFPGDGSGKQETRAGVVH

T3 sequence (P20138 other isoform, or with tags, fused parts or gaps): as the sequence (P20138 other isoform, or with tags, fused parts or gaps N20V N20V) above, with V9N counted along it
Sequence of CD33 variant F21Q (recombinant, biotinylated) (P20138 other isoform, or with tags, fused parts or gaps F21Q F21Q): as the sequence (P20138 other isoform, or with tags, fused parts or gaps N20V N20V) above, with V9N, F10Q counted along it
Sequence of CD33 variant N20G (recombinant, biotinylated) (P20138 other isoform, or with tags, fused parts or gaps N20G N20G): as the sequence (P20138 other isoform, or with tags, fused parts or gaps N20V N20V) above, with V9G counted along it
Sequence of CD33 variant W22D (recombinant, biotinylated) (P20138 other isoform, or with tags, fused parts or gaps W22D W22D): as the sequence (P20138 other isoform, or with tags, fused parts or gaps N20V N20V) above, with V9N, W11D counted along it
Sequence of CD33 variant W22E (recombinant, biotinylated) (P20138 other isoform, or with tags, fused parts or gaps W22E W22E): as the sequence (P20138 other isoform, or with tags, fused parts or gaps N20V N20V) above, with V9N, W11E counted along it
T1 sequence (P20138 18-364 W22R limits assumed): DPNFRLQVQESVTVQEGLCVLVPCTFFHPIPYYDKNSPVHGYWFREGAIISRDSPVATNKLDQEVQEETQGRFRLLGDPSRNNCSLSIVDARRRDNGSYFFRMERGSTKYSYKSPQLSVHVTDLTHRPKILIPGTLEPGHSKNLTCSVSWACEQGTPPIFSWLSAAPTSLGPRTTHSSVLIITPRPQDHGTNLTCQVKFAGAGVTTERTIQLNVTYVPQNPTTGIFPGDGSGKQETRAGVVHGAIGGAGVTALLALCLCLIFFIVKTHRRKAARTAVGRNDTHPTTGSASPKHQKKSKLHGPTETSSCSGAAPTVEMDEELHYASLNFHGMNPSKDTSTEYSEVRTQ
Sequence of CD33 variant F21M (recombinant, biotinylated) (P20138 other isoform, or with tags, fused parts or gaps F21M F21M): as the sequence (P20138 other isoform, or with tags, fused parts or gaps N20V N20V) above, with V9N, F10M counted along it
Sequence of CD33 variant F21S (recombinant, biotinylated) (P20138 other isoform, or with tags, fused parts or gaps F21S F21S): as the sequence (P20138 other isoform, or with tags, fused parts or gaps N20V N20V) above, with V9N, F10S counted along it
Sequence of CD33 variant W22T (recombinant, biotinylated) (P20138 other isoform, or with tags, fused parts or gaps W22T W22T): as the sequence (P20138 other isoform, or with tags, fused parts or gaps N20V N20V) above, with V9N, W11T counted along it
Sequence of CD33 variant N20K (recombinant, biotinylated) (P20138 other isoform, or with tags, fused parts or gaps N20K N20K): as the sequence (P20138 other isoform, or with tags, fused parts or gaps N20V N20V) above, with V9K counted along it
Sequence of CD33 variant F44P (recombinant, biotinylated) (P20138 other isoform, or with tags, fused parts or gaps F44P F44P): as the sequence (P20138 other isoform, or with tags, fused parts or gaps N20V N20V) above, with V9N, F33P counted along it
Sequence of CD33 variant W22R (recombinant, biotinylated) (P20138 other isoform, or with tags, fused parts or gaps W22R W22R): as the sequence (P20138 other isoform, or with tags, fused parts or gaps N20V N20V) above, with V9N, W11R counted along it
Sequence of CD33 variant F21L (recombinant, biotinylated) (P20138 other isoform, or with tags, fused parts or gaps F21L F21L): as the sequence (P20138 other isoform, or with tags, fused parts or gaps N20V N20V) above, with V9N, F10L counted along it
Sequence of CD33 variant F21I (recombinant, biotinylated) (P20138 other isoform, or with tags, fused parts or gaps F21I F21I): as the sequence (P20138 other isoform, or with tags, fused parts or gaps N20V N20V) above, with V9N, F10I counted along it
Sequence of CD33 variant F21H (recombinant, biotinylated) (P20138 other isoform, or with tags, fused parts or gaps F21H F21H): as the sequence (P20138 other isoform, or with tags, fused parts or gaps N20V N20V) above, with V9N, F10H counted along it
Sequence of CD33 variant F21N (recombinant, biotinylated) (P20138 other isoform, or with tags, fused parts or gaps F21N F21N): as the sequence (P20138 other isoform, or with tags, fused parts or gaps N20V N20V) above, with V9N, F10N counted along it
T2 sequence (P20138 18-364 limits assumed): as the sequence (P20138 18-364 W22R limits assumed) above, with R5W counted along it

B1: Refmab #3 (antibody, V domains shown)
VH: QVQLVQSGAEVKKPGSSVKVSCKASGYTFTDYNMHWVRQAPGQGLEWIGYIYPYNGGTGYNQKFKSKATITADESTNTAYMELSSLRSEDTAVYYCARGRPAMDYWGQGTLVTVSS
VL: DIQMTQSPSSLSASVGDRVTITCRASESVDNYGISFMNWFQQKPGKAPKLLIYAASNQGSGVPSRFSGSGSGTDFTLTISSLQPDDFATYYCQQSKEVPWTFGQGTKVEIK
notes: Full-length MAb format, human IgG1 Fc silent (PG-LALA)
On to B1, for which the binding result in assay [1] is listed as “no binding”. The “Signal:Background” value in assay [2] was 35 signal:background ratio.

B2: Refmab #4 (antibody, human IgG1, V domains shown)
VH: QVQLVQSGAEVKKPGESVKVSCKASGYTFTNYGMNWVKQAPGQGLEWMGWINTYTGEPTYADKFQGRVTMTTDTSTSTAYMEIRNLGGDDTAVYYCARWSWSDGYYVYFDYWGQGTSVTVSS
VL: DIVMTQSPDSLTVSLGERTTINCKSSQSVLDSSTNKNSLAWYQQKPGQPPKLLLSWASTRESGIPDRFSGSGSGTDFTLTIDSPQPEDSATYYCQQSAHFPITFGQGTRLEIK
As for B2, the “% WT binding” value in assay [3] amounted to 73.9 % WT binding; in [4], 106 % WT binding; in assay [5], 129 % WT binding; in [6], 103 % WT binding; in assay [7] it was 99.3 % WT binding; in assay [8] it was 79.4 % WT binding. The “% WT binding” value was determined as 96 % WT binding in assay [9]; 88.3 % WT binding in assay [10]; 89 % WT binding in [11]; 111 % WT binding in [12]; 87.2 % WT binding in assay [13]; 0 % WT binding in [14]. In addition, the “% WT binding” value is 0 % WT binding in assay [15]; 100 % WT binding in assay [16]; 0 % WT binding in assay [17]; 91 % WT binding in [18]; 100 % WT binding in assay [19]; 0 % WT binding in assay [20]. Besides, the “% WT binding” value in assay [21] was 87.7 % WT binding; in assay [22], 136 % WT binding; in [23], 108 % WT binding; in assay [24] it was 122 % WT binding; in assay [25], 122 % WT binding; in assay [26], 99.5 % WT binding.

For the origin of these results see patent publication US20260242735A1 (UNIVERSIT T BASEL, published 2026).
